Consider 7 molecules from US20110195494A1 (Boehringer Ingelheim, published 2011).

Where “and” joins values, the source holds several entries; their conditions need not be identical. Equal entries are not always repeated.

Test [1] addresses recombinant human DLL4, C-terminally His-tagged extracellular domain (R&D Systems) (human) (UniProt Q9NR61). Description: SPR, rhDLL4.
Test [2] deals with cynomolgus DLL4 on overexpressing cells (cynomolgus (SEQ ID NO: 418 is the rhesus entry, stated 100% identical)). The test can be described thus: FACS on CHO-cDLL4.
Chain of cynomolgus DLL4 on overexpressing cells (cynomolgus (SEQ ID NO: 418 is the rhesus entry, stated 100% identical)) (Q9NR61 other isoform, or with tags, fused parts or gaps limits assumed): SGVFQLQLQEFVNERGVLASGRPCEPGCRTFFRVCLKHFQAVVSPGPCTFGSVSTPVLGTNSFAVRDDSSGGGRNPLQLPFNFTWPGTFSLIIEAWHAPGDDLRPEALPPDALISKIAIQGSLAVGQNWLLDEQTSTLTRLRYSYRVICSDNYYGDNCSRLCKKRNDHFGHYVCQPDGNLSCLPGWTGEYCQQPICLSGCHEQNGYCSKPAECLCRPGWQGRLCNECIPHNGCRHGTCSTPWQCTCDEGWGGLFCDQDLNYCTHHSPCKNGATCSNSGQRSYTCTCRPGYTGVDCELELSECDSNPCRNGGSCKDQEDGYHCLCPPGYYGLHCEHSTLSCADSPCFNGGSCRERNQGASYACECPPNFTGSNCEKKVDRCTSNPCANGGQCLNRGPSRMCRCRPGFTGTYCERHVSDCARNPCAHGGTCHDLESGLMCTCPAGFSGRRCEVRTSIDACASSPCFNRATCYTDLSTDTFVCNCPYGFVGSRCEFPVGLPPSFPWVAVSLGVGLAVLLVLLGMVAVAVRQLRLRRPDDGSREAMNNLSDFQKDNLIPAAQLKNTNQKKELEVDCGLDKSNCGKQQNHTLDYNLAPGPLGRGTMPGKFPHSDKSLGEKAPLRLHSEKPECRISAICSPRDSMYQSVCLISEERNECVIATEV
The target of test [3] is full length human DLL4 on overexpressing CHO or HEK293 cells (human) (UniProt Q9NR61). Description: FACS on CHO-hDLL4.
Chain of full length human DLL4 on overexpressing CHO or HEK293 cells (human) (Q9NR61 27-685 limits assumed): as the sequence (Q9NR61 other isoform, or with tags, fused parts or gaps limits assumed) above, with V12I, S52T, S359N, R413L, S434N counted along it
Test [4] has as its target full length mouse DLL4 on overexpressing CHO or HEK293 cells (mouse) (UniProt Q9JI71). Description: FACS on CHO-mDLL4.
In test [5] the target is full length human DLL4 on overexpressing CHO or HEK293 cells (human) (UniProt Q9NR61). Description: cell-based or functional assay.
The target in test [6] is recombinant human DLL4, C-terminally His-tagged extracellular domain (R&D Systems) (human) (UniProt Q9NR61). The test can be described thus: cell-based or functional assay.
Chain of recombinant human DLL4, C-terminally His-tagged extracellular domain (R&D Systems) (human) (Q9NR61 25-522): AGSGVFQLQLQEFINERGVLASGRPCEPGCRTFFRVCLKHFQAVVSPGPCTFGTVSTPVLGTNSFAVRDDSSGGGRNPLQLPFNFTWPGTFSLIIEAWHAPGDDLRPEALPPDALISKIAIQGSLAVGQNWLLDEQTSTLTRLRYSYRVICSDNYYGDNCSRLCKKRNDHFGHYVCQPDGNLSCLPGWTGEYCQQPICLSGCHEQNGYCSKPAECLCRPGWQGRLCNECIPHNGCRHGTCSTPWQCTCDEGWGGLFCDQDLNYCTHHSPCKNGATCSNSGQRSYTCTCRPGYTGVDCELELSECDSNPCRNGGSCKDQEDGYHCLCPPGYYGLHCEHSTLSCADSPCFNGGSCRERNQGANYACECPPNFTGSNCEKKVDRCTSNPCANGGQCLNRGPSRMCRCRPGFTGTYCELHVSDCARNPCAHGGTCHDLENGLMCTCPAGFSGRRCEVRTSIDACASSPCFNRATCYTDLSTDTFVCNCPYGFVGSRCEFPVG
The target in test [7] is full length human DLL4 on overexpressing CHO or HEK293 cells (human) (UniProt Q9NR61). The test can be described thus: FMAT, hNotch1/Fc on CHO-hDLL4.
Test [8] deals with full length mouse DLL4 on overexpressing CHO or HEK293 cells (mouse) (UniProt Q9JI71). Description: FMAT, hNotch1/Fc on CHO-mDLL4.
Chain of full length mouse DLL4 on overexpressing CHO or HEK293 cells (mouse) (Q9JI71 27-686): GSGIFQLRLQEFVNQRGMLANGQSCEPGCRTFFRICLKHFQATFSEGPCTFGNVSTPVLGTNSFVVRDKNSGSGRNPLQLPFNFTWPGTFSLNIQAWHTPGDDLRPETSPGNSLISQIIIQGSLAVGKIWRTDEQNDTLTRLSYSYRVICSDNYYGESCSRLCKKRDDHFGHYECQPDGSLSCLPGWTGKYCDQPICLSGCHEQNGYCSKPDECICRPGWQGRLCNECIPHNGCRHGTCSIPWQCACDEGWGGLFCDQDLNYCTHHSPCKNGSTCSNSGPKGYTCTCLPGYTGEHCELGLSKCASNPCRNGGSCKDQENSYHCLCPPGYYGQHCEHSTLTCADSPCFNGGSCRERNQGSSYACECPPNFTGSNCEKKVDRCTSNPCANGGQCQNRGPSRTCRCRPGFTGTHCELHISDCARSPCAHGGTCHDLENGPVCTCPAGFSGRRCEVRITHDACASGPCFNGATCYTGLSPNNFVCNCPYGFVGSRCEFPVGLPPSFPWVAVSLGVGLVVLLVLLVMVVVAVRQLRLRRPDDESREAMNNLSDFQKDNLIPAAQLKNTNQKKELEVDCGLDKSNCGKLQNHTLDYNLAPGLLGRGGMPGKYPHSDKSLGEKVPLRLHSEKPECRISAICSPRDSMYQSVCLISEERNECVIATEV
For test [9], the target named is full length human DLL4 on overexpressing CHO or HEK293 cells (human) (UniProt Q9NR61). The test can be described thus: FMAT, hNotch1/Fc on CHO-hDLL4. The source holds these as a separate data set.
Test [10] has as its target full length mouse DLL4 on overexpressing CHO or HEK293 cells (mouse) (UniProt Q9JI71). The test can be described thus: FMAT, hNotch1/Fc on CHO-mDLL4. The source holds these as a separate data set.
In test [11] the target is recombinant human DLL4, C-terminally His-tagged extracellular domain (R&D Systems) (human) (UniProt Q9NR61). The test can be described thus: SPR Biacore T100, hDLL4 on chip. For orientation: SPR reads the build-up and loss of mass on a sensor chip optically.
For test [12] the target is unchanged. The test can be described thus: hDLL4/hNotch1-Fc competition ELISA. (In an ELISA, binding on a coated surface is turned into a signal by an enzyme label.)
The target is the same in test [13]. The test can be described thus: hDLL4/hNotch1-Fc competition ELISA. This is another data set of the same source.
Test [14] has the same target. Description: competition ELISA, summary Table 21.
For test [15] the target is unchanged. The test can be described thus: binding ELISA, coated rhDLL4.
The target of test [16] is recombinant mouse DLL4, C-terminally His-tagged extracellular domain (R&D Systems) (mouse) (UniProt Q9JI71). The test can be described thus: binding ELISA, coated rmDLL4.
Chain of recombinant mouse DLL4, C-terminally His-tagged extracellular domain (R&D Systems) (mouse) (Q9JI71 27-532): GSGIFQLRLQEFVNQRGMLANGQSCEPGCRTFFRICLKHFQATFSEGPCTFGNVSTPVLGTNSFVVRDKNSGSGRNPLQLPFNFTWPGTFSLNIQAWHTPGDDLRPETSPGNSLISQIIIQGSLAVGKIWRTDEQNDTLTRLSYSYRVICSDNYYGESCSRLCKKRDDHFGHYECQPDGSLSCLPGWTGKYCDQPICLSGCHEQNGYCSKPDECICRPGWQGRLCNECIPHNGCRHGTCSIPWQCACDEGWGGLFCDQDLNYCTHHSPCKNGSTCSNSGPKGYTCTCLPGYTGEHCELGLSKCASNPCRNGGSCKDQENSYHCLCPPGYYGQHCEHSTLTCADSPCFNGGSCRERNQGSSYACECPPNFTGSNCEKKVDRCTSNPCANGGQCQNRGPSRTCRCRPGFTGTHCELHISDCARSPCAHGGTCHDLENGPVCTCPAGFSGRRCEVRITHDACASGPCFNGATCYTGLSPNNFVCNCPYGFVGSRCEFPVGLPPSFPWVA
The target of test [17] is recombinant human DLL4, C-terminally His-tagged extracellular domain (R&D Systems) (human) (UniProt Q9NR61). Description: hDLL4/hNotch1-Fc competition AlphaScreen. (Alpha assays give light when donor and acceptor beads are brought close together.)
In test [18] the target is full length human DLL4 on overexpressing CHO or HEK293 cells (human) (UniProt Q9NR61). Description: FMAT competition, hDLL4 on cells, summary Table 21.
Test [19] deals with full length mouse DLL4 on overexpressing CHO or HEK293 cells (mouse) (UniProt Q9JI71). Description: FMAT competition, mDLL4 on cells, summary Table 21.
The target in test [20] is recombinant human DLL4, C-terminally His-tagged extracellular domain (R&D Systems) (human) (UniProt Q9NR61). Description: affinity on hDLL4, summary Table 21 (method not named there).
For test [21], the target named is T1, full length mouse DLL4 on overexpressing CHO or HEK293 cells (mouse, UniProt Q9JI71 27-686).
T1 construct: whole, on cells; also called CHO-mDLL4; mDLL4
T1 sequence (Q9JI71 27-686): as the sequence (Q9JI71 27-686) above
Description: FACS on HEK293-mDLL4 cells. The method, then: In order to determine the cynomologus cross-reactivity of the VHHs, a FACS binding experiment is performed. Cynomolgus DII4 expressing HEK293 cells (transient or stable transfection) are used for a titration binding experiment of the VHHs. After a 30 minutes incubation on ice, all samples are washed and detection is performed by applying anti-c-myc˜Alexa647 (Santa Cruz Biotechnology, Santa Cruz, Calif., USA). Human and mouse DII4 overexpressing HEK293 cells are taken as reference. The mean MCF value is determined on the FACS Array and used for calculation of the EC₅₀ value (see FIG. 9).

Test [22] addresses T2, full length human DLL4 on overexpressing CHO or HEK293 cells (human, UniProt Q9NR61 27-685).
T2 construct: also called CHO-hDLL4; HEK293-hDII4
Description: FMAT, hNotch1/Fc on CHO-hDLL4, periplasmic extract. From the text:
(§1) All calculations are based on the FL1 total signal which comprises the average of the fluorescence per well times the number of counts per well.

The target of test [23] is T1, full length mouse DLL4 on …. Description: FMAT, hNotch1/Fc on CHO-mDLL4, periplasmic extract.
Text: as §1

In test [24] the target is T3, recombinant human DLL4, C-terminally His-tagged extracellular domain (R&D Systems) (human, UniProt Q9NR61 25-522, biotinylated where used in competition ELISA, AlphaScreen and on SA chips).
T3 construct: also called rhDLL4; hDLL4; not shown: C-terminal His tag
T3 sequence (Q9NR61 25-522): as the sequence (Q9NR61 25-522) above
Description: binding ELISA, coated rhDLL4.

The next test has as its target T4, human DLL1 (Alexis) (human, UniProt O00548 18-545, limits assumed).
T4 construct: also called hDLL1; rhDLL1
T4 sequence (looked up): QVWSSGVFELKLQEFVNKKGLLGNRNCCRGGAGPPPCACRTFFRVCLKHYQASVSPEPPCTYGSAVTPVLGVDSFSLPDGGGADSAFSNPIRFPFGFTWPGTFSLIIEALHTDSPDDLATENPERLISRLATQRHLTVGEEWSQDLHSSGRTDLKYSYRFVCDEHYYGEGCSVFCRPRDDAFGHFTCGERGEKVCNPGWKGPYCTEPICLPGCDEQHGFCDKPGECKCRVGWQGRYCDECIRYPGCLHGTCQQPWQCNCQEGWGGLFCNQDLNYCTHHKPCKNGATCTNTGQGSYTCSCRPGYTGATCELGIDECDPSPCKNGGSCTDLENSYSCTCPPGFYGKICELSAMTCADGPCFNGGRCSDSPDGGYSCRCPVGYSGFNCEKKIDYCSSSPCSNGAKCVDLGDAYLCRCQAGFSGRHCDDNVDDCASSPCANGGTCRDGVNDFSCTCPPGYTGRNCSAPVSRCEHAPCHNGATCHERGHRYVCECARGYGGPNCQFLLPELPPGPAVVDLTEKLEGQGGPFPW
The test can be described thus: binding ELISA, coated rhDLL1.

The target in the next test is T5, human Jagged-1 (Alexis) (human, UniProt P78504 34-1067, limits assumed).
T5 construct: also called hJag-1; hJAG1
The test can be described thus: binding ELISA, coated rhJagged-1.

Test [25] deals with T2, full length human DLL4 on …. The test can be described thus: FMAT competition: labelled hNotch1/Fc on CHO-hDLL4 cells.
Text: as §1

For test [26], the target named is T1, full length mouse DLL4 on …. The test can be described thus: FMAT competition: labelled hNotch1/Fc on CHO-mDLL4 cells.
Text: as §1

T2 sequence (Q9NR61 27-685 limits assumed): as the sequence (Q9NR61 other isoform, or with tags, fused parts or gaps limits assumed) above, with V12I, S52T, S359N, R413L, S434N counted along it

B1: anti-DLL4 Fab fragment (of the Genentech anti-DLL4 mAb of US 2008/0014196) (Fab)
heavy: EVQLVESGGGLVQPGGSLRLSCAASGFTFTDNWISWVRQAPGKGLEWVGYISPNSGFTYYADSVKGRFTISADTSKNTAYLQMNSLRAEDTAVYYCARDNFGGYFDYWGQGTLVTVSS
light: DIQMTQSPSSLSASVGDRVTITCRASQDVSTAVAWYQQKPGKAPKLLIYSASFLYSGVPSRFSGSGSGTDFTLTISSLQPEDFATTYYCQQSYTGTVTFGQGTKVEIK
B1: the Kd in [1], in [11] and in test [20] was 1.5 nM throughout. Moreover, the koff in test [1] and in test [11] was 0.00034 s⁻¹ each time. In addition, the kon in test [1] and in test [11] was 230000 M⁻¹ s⁻¹ each time. Also, the EC50 (as a rule, the concentration at which the effect is half-maximal) in [2] turned out to be 2.5 nM; in test [3] it was 5.6 nM; in test [4] it was 2.1 nM; in [15], 3 nM; in test [16] it was 3 nM. Also, in [5], the IC50, DLL4/Notch1 reporter assay was determined as 133 nM. Also, the IC50 (nM) (experiment 1), DLL4 proliferation assay (HUVEC) in test [6] amounted to 4.9 nM. Besides, the IC50 (nM) (experiment 2), DLL4 proliferation assay (HUVEC) in [6] is 5.6 nM. The concentration for half-maximal inhibition (IC50) – broadly, the point on the concentration scale where inhibition reaches its midpoint – in test [7] is 5.4 nM; in test [8] it was 2.3 nM; in test [9], 5.5 nM and 3.4 nM; in test [10], 3 nM and 1.6 nM; in test [12], 0.7 nM; in test [13] it was 1.5 nM and 1.2 nM. Also, the 50% inhibitory concentration (IC50) in [14] was 1.5 nM and 1.2 nM; in test [17] it was 0.3 nM; in test [18], 5.5 nM and 3.4 nM; in test [19], 3 nM and 1.6 nM. In addition, the EC50 (read off the curve) (in general, the concentration needed to bring the measured effect to its halfway point) was 0.8 nM in [15] and 0.9 nM in [16].

B2: DLLBII101G08 (VHH)
VHH: EVQLVESGGGLVQAGGSLRLSCAASGRTFSSYAMAWFRQAPGKEREFVAAIRWSGGTAYYADSVQGRFTISRDNAKNTVYLQMNSLKPEDTAVYYCANRAADTRLGPYEYDYWGQGTQVTVSS
notes: also called DLLBII101G8; 101G8; not shown: C-terminal c-myc tag and His6 tag
B2: the “EC50 (read off the curve)” value in [21] lay in the range of 37 to 40 nM. Also, in [22], the “FMAT hDLL4 % inhibition” value is 91%. The “FMAT mDLL4 % inhibition” value in test [23] is 92%.

B3: DLLBII129D08 (VHH)
VHH: EVQLVESGGGLVQAGGSLRLSCAASGRTFSSYAMAWYRQAPGKEREYVAAIRWSGGTAYYADSVQGRFTISRDNAKNTVYLQMNSLKPEDTAVYYCANRAPDTRLEPYLYDYWGQGTQVTVSS
notes: not shown: C-terminal c-myc tag and (His)6 tag
B3: in [24], the “EC50 (read off the curve)” value is about 0.6 nM. The binding result with human DLL1 (Alexis) and with human Jagged-1 (Alexis) was “no binding (tested: 1e-6 M)” throughout.

B4: DLLBII129E11 (VHH)
VHH: EVQLVESGGGLVQAGGSLRLSCAASGRTFSSYAMAWYRQAPGKEREYVAAIRWSGGTAYYADSVQGRFTISRDNAKNTVYLQMNSLKPEDTAVYYCANRAPDTRLRPYLYDYWGQGTQVTVSS
notes: as for B3
In the case of B4, in test [24], the 50% effective concentration (EC50 (read off the curve)) is about 0.6 nM. Besides, the binding result in the test with human DLL1 (Alexis) and with human Jagged-1 (Alexis) was “no binding (tested: 1e-6 M)” throughout.

B5: DLLBII129B05 (VHH)
VHH: EVQLVESGGGLVQAGGSLRLSCAASGRTFSSYAMAWYRQAPGKEREYVAAIRWSGGTAYYADSVQGRFTISRDNAKNTVYLQMNSLKPEDTAVYYCANRAPDTRLAPYEYDHWGQGTQVTVSS
notes: as for B3
For the molecule B5, the concentration giving a half-maximal response (EC50 (read off the curve)) in test [24] is about 0.6 nM. For the same molecule, the binding result with human DLL1 (Alexis) and in the test with human Jagged-1 (Alexis) was “no binding (tested: 1e-6 M)” throughout.

B6: 78B03 (VHH)
VHH: EVQLVESGGGLVQAGGSLRLSCAASGRTFSNYIMGWFRQAPGKEREFVAGISRYGDYTAYADSVKGRFTISRDNVKNTVYLRMNSLKPDDTAVYYCAANEGYCSGYGCYEDSGQYDYWGQGTQVTVSS
notes: also called DLLBII78B03
As for B6, the binding result in test [25] and in [26] was “binds” throughout.

B7: 83G04 (VHH)
VHH: EVQLVESGGGLVKPGGSLRLSCAASGRTLYIMGWYRQAPGKEREFVAGISRYGDITYAADSVKGRFTISRDSVKNTVYLRMNSLKPDDTAVYYCAANGGYCSGYGCYEDSGQYDYWGQGTQVTVSS
notes: also called DLLBII83G04
Regarding B7, the binding result in test [25] is “binds”. Besides, the “IC50 (read off the curve)” value in test [26] was about 40 nM.
